Legend:
[1] = biological target: T1, hSBP2 (Homo sapiens) (UniProt Q96T21); experiment: EMSA
T1 sequence: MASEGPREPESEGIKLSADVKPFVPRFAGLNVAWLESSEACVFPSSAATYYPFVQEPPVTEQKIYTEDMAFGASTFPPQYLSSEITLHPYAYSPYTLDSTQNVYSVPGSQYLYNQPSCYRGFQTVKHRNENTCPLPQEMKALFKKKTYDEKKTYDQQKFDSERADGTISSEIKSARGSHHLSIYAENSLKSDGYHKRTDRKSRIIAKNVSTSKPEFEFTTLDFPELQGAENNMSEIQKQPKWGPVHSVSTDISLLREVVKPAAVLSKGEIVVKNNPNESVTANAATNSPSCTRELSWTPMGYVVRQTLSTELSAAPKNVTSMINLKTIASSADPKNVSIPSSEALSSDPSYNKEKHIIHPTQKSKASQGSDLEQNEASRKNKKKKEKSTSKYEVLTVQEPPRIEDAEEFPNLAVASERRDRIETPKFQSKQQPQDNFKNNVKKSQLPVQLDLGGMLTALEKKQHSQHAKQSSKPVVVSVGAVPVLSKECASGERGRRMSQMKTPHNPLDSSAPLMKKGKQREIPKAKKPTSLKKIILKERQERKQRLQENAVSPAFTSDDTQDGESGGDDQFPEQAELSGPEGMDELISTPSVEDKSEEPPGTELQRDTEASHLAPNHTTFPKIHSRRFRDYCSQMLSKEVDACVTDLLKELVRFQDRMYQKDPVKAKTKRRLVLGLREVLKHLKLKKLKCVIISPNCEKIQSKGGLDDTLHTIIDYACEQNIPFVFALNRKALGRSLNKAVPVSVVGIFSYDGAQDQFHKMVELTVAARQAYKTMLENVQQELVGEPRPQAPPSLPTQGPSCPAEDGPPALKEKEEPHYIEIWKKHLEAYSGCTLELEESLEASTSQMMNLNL

[2] = biological target: T2, dSBP2 (Drosophila melanogaster) (UniProt Q9VSH1); experiment: EMSA
T2 sequence: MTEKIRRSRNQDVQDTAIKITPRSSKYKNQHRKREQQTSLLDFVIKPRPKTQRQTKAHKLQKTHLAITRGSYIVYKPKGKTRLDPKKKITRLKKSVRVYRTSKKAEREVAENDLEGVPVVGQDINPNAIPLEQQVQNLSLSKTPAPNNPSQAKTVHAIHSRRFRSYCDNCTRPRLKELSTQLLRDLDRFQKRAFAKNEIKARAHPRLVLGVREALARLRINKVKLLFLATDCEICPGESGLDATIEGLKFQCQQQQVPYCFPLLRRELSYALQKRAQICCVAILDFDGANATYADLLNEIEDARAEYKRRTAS

Substance | Kd [1] [nM] | Kd [2] [nM]
GPx1 SECIS (form 1) | 400 | –
dSelH SECIS (form 2) | – | 170
dSelK SECIS (form 2) | – | 260
